Test results taken from EP4713370A2 (dated 2026).

T1: CD79b on target B cell lines (Ramos (CD79b+) cells; Daudi cells) (UniProt P40259 29-229, limits assumed)
T1 construct: whole, on cells; On cells CD79b stands in the B cell receptor complex with CD79a; also called Ramos (CD79+) cells; CD79b expression cells
T1 sequence (looked up): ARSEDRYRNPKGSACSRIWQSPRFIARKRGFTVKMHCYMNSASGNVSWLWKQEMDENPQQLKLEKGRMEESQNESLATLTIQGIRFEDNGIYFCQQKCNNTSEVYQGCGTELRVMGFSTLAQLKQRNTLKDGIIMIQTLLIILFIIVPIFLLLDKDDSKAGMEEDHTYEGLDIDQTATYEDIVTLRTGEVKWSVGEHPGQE


Columns and labels:
[1] = target: T1, CD79b on target B cell lines (Ramos …); assay: flow cytometry on Ramos cells, anti-human IgG PE
[2] = target: T2, human NKp46 expressed on cells (primary human NK cells; CHOK1-hNKp46 cells) (human, UniProt O76036 22-304); assay: flow cytometry on purified CD56+ human NK cells, anti-human IgG PE
T2 construct: whole, on cells; also called cell surface expressed NKp46; NCR1
T2 sequence (O76036 22-304): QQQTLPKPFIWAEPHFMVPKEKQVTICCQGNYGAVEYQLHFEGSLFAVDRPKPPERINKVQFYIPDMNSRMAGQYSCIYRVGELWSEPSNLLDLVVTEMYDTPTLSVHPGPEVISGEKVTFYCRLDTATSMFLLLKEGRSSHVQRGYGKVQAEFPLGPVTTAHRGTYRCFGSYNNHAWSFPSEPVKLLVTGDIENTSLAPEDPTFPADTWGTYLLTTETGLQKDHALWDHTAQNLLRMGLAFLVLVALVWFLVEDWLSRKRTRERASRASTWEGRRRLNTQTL

[3] = target: T3, Recombinant human NKp46, His Tag (human NKp46 ECD antigen, aa. 22-254, his-tagged) (human, UniProt O76036 22-255); assay: ELISA on coated NKp46-His, and BLI with antibody on anti-human IgG Fc probe and 11 nM NKp46-His
T3 construct: also called NKp46 extracellular domain (ECD); Acrobiosystems #NC1-H52H4; not shown: His tag
T3 sequence (O76036 other isoform, or with tags, fused parts or gaps): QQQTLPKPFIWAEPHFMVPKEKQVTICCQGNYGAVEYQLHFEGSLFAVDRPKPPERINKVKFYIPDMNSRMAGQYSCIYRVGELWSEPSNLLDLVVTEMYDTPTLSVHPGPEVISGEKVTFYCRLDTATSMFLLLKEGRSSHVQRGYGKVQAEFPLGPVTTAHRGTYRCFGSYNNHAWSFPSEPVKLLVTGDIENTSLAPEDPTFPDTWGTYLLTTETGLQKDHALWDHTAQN

[4] = target: T2, human NKp46 expressed on cells (primary …); assay: flow cytometry on primary human NK cells, rabbit IgG, anti-rabbit IgG FITC

Binder	binding result [1]	binding result [2]	binding result [3]	binding result [4]
ch44G2/ch5-13 Fc-silenced (bispecific antibody, human IgG1, kappa, L234A L235A, LC format, LALAPG silenced Fc; also called CD79b/NKp46 bispecific antibody; 44G2/5-13) heavy: not shown light: DLVMTQTPSSVSAAVGGTVSINCRASEDIENYLAWYQQKPGQPPKLLIYRASTLSSGVSSRFSGSGSGTEFTLTISGVQPDDAATYYCQQGYRNSNVDNPFGGGTEMVVKRTVAAPSVFIFPPSDEQLKSGTASVVCLLNNFYPREAKVQWKVDNALQSGNSQESVTEQDSKDSTYSLSSTLTLSKADYEKHKVYACEVTHQGLSSPVTKSFNRGECGGGGSGGGGSGGGGSGGGGSAYDMTQTPASVEVAVGGTVTIKCQASQSISTALAWYQQKPGQPPKLLIYKASTLASGVSSRFKGSGSGTQFTLTISGVEPADAATYYCQQGYSRSNVDNVFGGGTEVVVKGGGGSGGGGSGGGGSGGGGSQSVEESGGRLVTPGTPLTLTCTVSGFSLSSYHMSWVRQAPGKGLEWIGYILANTDSYYANWAKGRFTISKTSTTVDLKITSPTTEDTATYFCARYDNHDAAYSTLWGPGTLVTVSS	binds	binds		
ch5-13 (antibody, human IgG1, kappa, V domains shown, Chimeric rabbit/human IgG1; also called chimeric anti-NKp46 antibody ch5-13) VH: QSVEESGGRLVTPGTPLTLTCTVSGFSLSSYHMSWVRQAPGKGLEWIGYILANTDSYYANWAKGRFTISKTSTTVDLKITSPTTEDTATYFCARYDNHDAAYSTLWGPGTLVTVSS VL: AYDMTQTPASVEVAVGGTVTIKCQASQSISTALAWYQQKPGQPPKLLIYKASTLASGVSSRFKGSGSGTQFTLTISGVEPADAATYYCQQGYSRSNVDNVFGGGTEVVVKR			binds	
rabbit anti-NKp46 clone 5-13 (expressed and purified as rabbit IgG) (antibody, V domains shown, Rabbit IgG) VH: QSVEESGGRLVTPGTPLTLTCTVSGFSLSSYHMSWVRQAPGKGLEWIGYILANTDSYYANWAKGRFTISKTSTTVDLKITSPTTEDTATYFCARYDNHDAAYSTLWGPGTLVTVSS VL: AYDMTQTPASVEVAVGGTVTIKCQASQSISTALAWYQQKPGQPPKLLIYKASTLASGVSSRFKGSGSGTQFTLTISGVEPADAATYYCQQGYSRSNVDNVFGGGTEVVVK				binds
ch44G2/ch6-1 Fc-silenced (bispecific antibody, human IgG1, kappa, L234A L235A, LC format, LALAPG silenced Fc; also called CD79b/NKp46 bispecific antibody; 44G2/6-1) heavy: not shown light: DLVMTQTPSSVSAAVGGTVSINCRASEDIENYLAWYQQKPGQPPKLLIYRASTLSSGVSSRFSGSGSGTEFTLTISGVQPDDAATYYCQQGYRNSNVDNPFGGGTEMVVKRTVAAPSVFIFPPSDEQLKSGTASVVCLLNNFYPREAKVQWKVDNALQSGNSQESVTEQDSKDSTYSLSSTLTLSKADYEKHKVYACEVTHQGLSSPVTKSFNRGECGGGGSGGGGSGGGGSGGGGSADVVMTQTPASVSEPVGGTITINCQASENIYSSLAWYQQKPGQPPKLLMYDVSDLASGVPSRFSGSGSGTEFALTISDVQPDDAATYFCLGGYPSNNYRMAFGGGTEVVVKGGGGSGGGGSGGGGSGGGGSQSLEESGGGLVQPEGSLTLTCTASGFSFSSSAWICWVRQAPGKGLEWIGCINTVSVNAYYASWAKGRFTISKTSSTTVTLQVTSLTAADTATHFCARNPYNSLRLWGPGTLVTVSS	binds	binds		
ch3-7 (antibody, human IgG1, kappa, V domains shown, Chimeric rabbit/human IgG1; also called chimeric anti-NKp46 antibody ch3-7) VH: QSLEESGGRLVTPGTPLTLTCTVSGFSPSSYYMSWVRQAPGKGLEYIGIIFSGGSTWYASWAKGRVTISRTSTTVDLKMTSLTTEDTATYFCARGDAVGSGYWGLWGPGTLVTVSS VL: AFELTQTPSSVEAAVGGTVTINCQASQDIYIYLAWYQQKPGQPPKLLIYSASTLASGVSSRFTGSRSGTQFTLTISDLEPADAATYYCQSYDGTSNTGFGGGTEVVVRR			binds	
rabbit anti-NKp46 clone 3-7 (expressed and purified as rabbit IgG) (antibody, V domains shown, Rabbit IgG) VH: QSLEESGGRLVTPGTPLTLTCTVSGFSPSSYYMSWVRQAPGKGLEYIGIIFSGGSTWYASWAKGRVTISRTSTTVDLKMTSLTTEDTATYFCARGDAVGSGYWGLWGPGTLVTVSS VL: AFELTQTPSSVEAAVGGTVTINCQASQDIYIYLAWYQQKPGQPPKLLIYSASTLASGVSSRFTGSRSGTQFTLTISDLEPADAATYYCQSYDGTSNTGFGGGTEVVVR				binds
